# Reference: a protein production outcome set (Wang et al. 2014)
# Test: label from the status in PepcDB records
# 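Also: failed if final PepcDB status was selected cloned or expressed and not failed if soluble or beyond.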
row,Sequence,protein production
1,MKHFKLPDLGEGLQEAEIVEWHVKAGDSVRADQRLVSVETAKALVDIPAPYDGVVGKLFGAEGDILHVGEPLVGFEGEEADAGTVVGRLEGGGSALEDRFFIGAAPSTREHLAPRATPAVRQFARQQGVELAGLSGSGPDGLITRADVEAAAQGTRERFGGERLRGVRRSMALNMARSHAEVVPVTIYGDADLHRWKTARDPLIRLAQALAEACRAEPTLNAWFDGASLSLKLHERLDLGIAVDTPDGLFVPVLRDVGARSAEDLRAGMRRLREDVQARSIPPAEMLGATLTLSNFGTLFGRYANPVVVPPQVAILGAGGIRDEVVAWRGEMAIHPILPLSLSFDHRAATGGEAARFLKVLVNALEQPD,failed
2,MKHFLTLRDFSKEEILSLVNHASELKKEPKKLLQDKTLAMIFEKNSTRTRMAFELAITELGGKALFLSSNDLQLSRGEPVKDTARVIGAMVDFVMMRVNKHETLLEFARYSKAPVINALSELYHPTQVLGDLFTIKEWNKMQNGIAKVAFIGDSNNMCNSWLITAAILGFEISIAMPKNYKISPEIWEFAMKQALISGAKISLGYDKFEALKDKDVVITDTWVSMGEENEKERKIKEFEGFMIDEKAMSVANKDAILLHCLPAYRGYEVSEEIFEKHADVIFEEARNRLYVVKALLCFLDNQRGRE,not failed
3,MKHIHIIGIGGTFMGGLAAIAKEAGFEVSGCDAKMYPPMSTQLEALGIDVYEGFDAAQLDEFKADVYVIGNVAKRGMDVVEAILNLGLPYISGPQWLSENVLHHHWVLGVAGTHGKTTTASMLAWVLEYAGLAPGFLIGGVPENFGVSARLPQTPRQDPNSQSPFFVIEADEYDTAFFDKRSKFVHYRPRTAVLNNLEFDHADIFADLGAIQTQFHYLVRTVPSEGLIVCNGRQQSLQDTLDKGCWTPVEKFGTEHGWQAGEANADGSFDVLLDGKTAGRVKWDLMGRHNRMNALAVIAAARHVGVDIQTACEALGAFKNVKRRMEIKGTANGITVYDDFAHHPTAIETTIQGLRQRVGGARILAVLEPRSNTMKLGTMKSALPVSLKEADQVFCYAGGVDWDVAEALAPLGGRLNVGKDFDAFVAEIVKNAEVGDHILVMSNGGFGGIHGKLLEALR,not failed
4,MKHKGLIRSYEMEFAFLYRLSDLAVIVTFMLLLVLKDTNTSMDKDYVILSFVGGISFLFMAESGNLYRSWRTSSFREQMFIVCMSWLMTSALLFMVLYFSEVYPLFDRSILALWVTITPALLLAWRVTFRTVLAYLRKMGFNTRTAIIIGQTPHGITLANEIQNHTEHGVLFDGFYDERSSDRLPSSEYPIKGAVNQALERAKRGEVDYVYIAMPMHAKERIASILNQFSDTTANTYLIPDFFTYNLLHSRWDQIGQVQTLSVFDTPFAGVSSWIKRFEDILCSSIILVLISPILLAIAIGIKLTSKGPVIFKQHRYGLDGRKIEVWKFRSMTTMDQGPNIKQATKNDPRITPFGSFLRRTSLDELPQFINVLQGTMSIVGPRPHAVAHNEEYRQIVARYMLRHKVKPGITGWAQINGYRGETDTLDKMEKRVEFDLDYIHHWSVWMDIKIIFLTVFKGFTGSNAY,failed
5,MKHPDALRIALVGIGKIARDQHVPTIAARDDVQLVATVSRHGTVDGVPAYHTLEDAFAAQPQIEAVALCTPPVGRHALAQAALAAGRHVFLEKPPAATLAEIHDLQDVAQRAQRTLFTSWHSRCAAGVEPARAWLADKQLVRAHITWKEDIRHWHPGQDWILEPGGMGVFDPGINALSIATHLLPRSLALRDAELHTPENRQAPLYARLAFVDTAGLPVTAEFDFLQTGHQRWDIEVETTAGMLMLSEGGAKLRIEGQLQALPASSEYDGLYGRFVQLVRAGQSEVDIAPFVHVADAFMLGARQVTAPFAW,failed
6,MKHPDPAQKVEGTTATTPTKVAAFFDLDKTIIAMSSTYAYGREFMNSGLISPVEALQLSLAQATYMFAGHTSEQMDNTRDQLTAMIRGWEVQQVRSIAEETMHSVVTPTIYAEARELIEHHQELGHDVIIISASVKELVEPIARELGVHKTVTTVLEAHDGMYTGEVLFYCKGDAKAQSILDLAEANNYDLSLSFAYSDSFTDLPMLEAVGNPAAVNPDRALKKIALEQGWKILSFKNPEPLFQMPSTRDVGIGTGVVAGIAAVTAGSIWWMKRARRGSA,failed
7,MKHVHGNGLVLGAAAFVFLAAQPVSAQTTQITEVKLNPGNGGLSVVLKTSAGSRPQVFTTKRGKALVADIINTQLRLPQGNNFRQDKPAAGIASVEVVQLDANSIRVIVTGDSDAPTSQPVIRQQDGITLSLTPSTGTTASAPVTPRPPVSTTPPASTPAQTGVVPNVLVPNPQVTIDGKPAQPAGPGQPLSQAPPFLPRAVAPPVGDIAISATDASPSTIDLGTQERVPRLVLRDAPVREVLSLLARAANLNLAYISDGVGGTPAAGGQGISQTISLDIENEPVQDVFNYVLRLSGLEANRSNRTIFVGPKLPNSTRDVVMRNLRLNQVNVGVALNFLVGLGAETAVSRERQVTNVNAVPVGTGVAPITQTQTTTETRVETQRINFQDSNPLLRGLQALGDERTNSLTLIGPPKLVEMAMNQLTQLDIRRRQVVVNVKIIDVNLSNTQDNNASLSFGIGNNYFSSDGGAASLNIGGLNPPSAGNVRNSLNPTVTTNPYSSGNTFLDLTQSVGPVPDTGVDTRNITINNPGGGSITETQGQDLNFVQRRAGISGDPFETGITAVTQGTPNIIRRTTTTDPTTGAVTETTTVTEGTRGSITAALPSLFQYPKRLLANLQAQVTNGNAKILTDPTLIVQEGQTANVKLTQEVVGNITSETTRGDGASTQTVTAEKTDVGLTLAVKIDRIDDNGFVSLSVAPVVKAPQSSAVINVSGNSQTIFLVSERSLNSGMIRLRDGQTLILSGIIQDQDRTSVSKIPILGDIPLIGSLFRKTNRTNERREVIVLLTPQVMDDSQNSSYGYNYSPSPEVRQMLERRGLNTPRR,failed
8,MKHVRSHLPRVLLGLMISVSLVLAGCANNGTGSSMLGGSGTDPDPRLTKSTDSSFFSTSGLTACAAAAGVGILACAVASPSDKVKCMVVAGIAACGVAMGANYYYDYRRSKYSNTAQRLQLMNDDVKADTEKVAQRTYTLQQVINDDKERIAGIQKSIKTKTLDKAKAQQEIASVDSNLAQMNKDLTGMRSKVAEYKKTADLERASDGGTQVTAIDGEISKMNSKVASLQKEVDGLYSQRQAITLG,failed
9,MKIAIAGAGAMGSRLGIMLHQGGNDVTLIDQWPAHIEAIRKNGLIADFNGEEVVANLPIFSPEEIDHQNEQVDLIIALTKAQQLDAMFKAIQPMITEKTYVLCLLNGLGHEDVLEKYVPKENILVGITMWTAGLEGPGRVKLLGDGEIELENIDPSGKKFALEVVDVFQKAGLNPSYSSNVRYSIWRKACVNGTLNGLCTILDCNIAEFGALPVSESLVKTLISEFAAVAEKEAIYLDQAEVYTHIVQTYDPNGIGLHYPSMYQDLIKNHRLTEIDYINGAVWRKGQKYNVATPFCAMLTQLVHGKEELLGAK,not failed
10,MKIAIASGKGGTGKTTVAVNLALALEEVQLFDCDVEEPNCNLFLGFEMEPVEEVVFLVPEINPDKCTLCRGCSDFCRYNALAAIPNRILSFPSLCHGCGGCSFVCPAGAIEEKPETIGIIQKALSDSPLTFFCGTLKIGKATATPVIKSLQNHIDESRPAIIDSPPGTACPVLAVMGFADYCVLVTESTPFGFHDFCLALEAARALNVPVGVVLNRDGLGDSRVEDFCRAEGIPILLRIPNDRTIARLYSEGIPFVKEMPEWKKQFKDMFETIKTGLYESKGVQLEHHHHHH,failed
11,MKIAIFGTTLHAGVMAALLAERGNDVFWCADHDYKGLEEQIVCQTYQEQDVNRLLVKQRQLGFLKDCRFSSIPLDIEAYLFCFSPTELQFALEVTQLLNIRPIIHPRLMINGSTFGLHGTEKLKQNLPKDHWVYFPDMIQEGNAINSVLTVKHVIVGVESDYTKTIMHEMLRPFFRFNHQYLFMPILDAEFTKLSISGMLATRISYMNDMALVAEKLGIDIANVKEGMAADTRIGSAYLSAGVGFGGENFSHDILTLSNVVSDTGARSRLLEQVWEINEQQKEVLFRKLWNYYHCDLKDKVVAIWGAAFKENTSNIHNAPIHSMLTALWAQGAIVKLHDPQALEEIQARYGKRNDLILCTEQYEATRGAHALCVMTVWKQYLSPDYKKLQQLMAHPFILDGRNVYDPVYIKQQGFAYEGIGRL,failed
12,MKIALINENSQASKNHIIYDSLKEATDKKGYQLFNYGMRGEEGESQLTYVQNGLMAAILLNTKAVDFVVTGCGTGVGAMLALNSFPGVVCGLAVDPTDAYLYSQINGGNALSIPYAKGFGWGAELTLKLMFERLFAEEMGGGYPRERVIPEQRNARILNEVKQITHNDLMTILKIIDQDFLKDTISGKYFQEYFFENCQDDEVAAYLKEVLAK,not failed
13,MKIATIKTGLASLAMLPGLVMAAPAVADKADNAFMMICTALVLFMTIPGIALFYGGLIRGKNVLSMLTQVTVTFALVCILWVVYGYSLAFGEGNNFFGNINWLMLKNIELTAVMGSIYQYIHVAFQGSFACITVGLIVGALAERIRFSAVLIFVVVWLTLSYIPIAHMVWGGGLLASHGALDFAGGTVVHINAAIAGLVGAYLIGKRVGFGKEAFKPHNLPMVFTGTAILYIGWFGFNAGSAGTANEIAALAFVNTVVATAAAILGWIFGEWALRGKPSLLGACSGAIAGLVGVTPACGYIGVGGALIIGVVAGLAGLWGVTMLKRLLRVDDPCDVFGVHGVCGIVGCIMTGIFAASSLGGVGFAEGVTMGHQLLVQLESIAITIVWSGVVAFIGYKLADLTVGLRVPEEQEREGLDVNSHGENAYNA,failed
14,MKIAVLGTGTVGRTMAGALADLGHEVTIGTRDPKATLARAEPDAMGAPPFSQWLPEHPHVHLAAFADVAAGAELVVNATEGASSIAALTAAGAENLAGKILVDIANPLDFSHGMPPTLNPVNTDSLGEQIQRTFPEAKVVKTLNTMNASLMVDPGRAAGGDHSVFVSGNDAAAKAEVATLLKSLGHQDVIDLGDITTARGAEMLLPVWIRLWGALGTANFNFKIAR,not failed
15,MKIFVDGDGSPVKETVIEVAVEKALDVVIVTSVDHYSLKDYPENVSFVYVDKGADAADFKIVQLIKKGDLLITQDYGLASLVLPKGVLVLHQLGYQYTKENIDGLLEQRYFSGQIRRKGGRTKGPKPFTDQDRTTFKQALIELVKRSLLEHHHHHH,failed
16,MKIGVDAGGTLIKIVQEKNGERTYSTRLTTEIEEVIQWLNQQDCNNINLTGGQAAMINEQLNCESRVFVEFDAAAKGLEILLEEQGHFLDDYIFTNVGTGTSLHFSNGKAQKRVGGIGTGGGMIQGLGYLLTGISNYKQLTDTAQNGNRDIIDLKVKHIYKDSEPPISGDLTAANFGNVLHHLDESFTDADKLASVIAVVGEVITTMSITVAREHNTKNVAYIGSSFHNNDLLKDVVKDYTVLRGCEPYYIEHGAFSGALGSIHLLEHHHHHH,failed
17,MKIIFSASPANRAAAYALRQAVFVEERGISADVEFDVKDTDQCEYAVLYLQPDLPITTLRLEPQADHVMRFGRVCTRKAYRGHGWGRQLLTAAEEWATQRGFTHGEIHGELTAQRFYELCGYRVTAGPYDEDGAPVVIMHKQ,failed
18,MKIIFSASPANRAAAYALRQAVFVEERGISADVEFDVKDTDQCEYAVLYLQPDLPITTLRLEPQADHVMRFGRVCTRKAYRGHGWGRQLLTAAEEWATQRGFTHGEIHGELTAQRFYELCGYRVTAGPYDEDGAPVVIMHKQLL,not failed
19,MKIIRNYLYNASYQVLILLTPLITVPYVARVLGPTGVGVYSYTNSIITYFVLIGTLGITVYGNQQIAFHRDDIIERSRTFWEIELLQAVNVGITFLGFGIFLILDHRYQLFMVFQSCQLLAGAFDVSWFFMGIEDFKKTVFRNTLVKIATLGAIFIFVRTQSDLGLYILILALSQLVGNFTLWPYLKTRLVRIKFKDLKIWHHYVPALMLFVPQAANLVYQQVNKTMLGNLDTVNSVAYFDYADKLIKTVLAVVTATGIVMLPHMANLHAKGKNETIKRYLYKSFEFVSMIALPLGFGIAGIATTLAPIYFGQDFSISGKLLIIEAPVILLIGWSNVIGQQYMMPTEQISKYTKSVIIGAIVNVILNVPLIMYLGAVGAPIATVAAELSVTLYQLFVVRKQIQINLLFSDFWKYLFSSTVMFIVVYGLNVSMPMSIINLIVQIVEGMIIYLGMLLVLQPKLVVEGKSLLLGKLHK,failed
